The source of these data is patent publication US20240262919A1 (SHANGHAITECH UNIVERSITY, published 2024).

Experiment [1] has as its target T1, human IL-18Rβ ECD Fc fusion (118-AP-100, R&D Systems) (human, UniProt O95256 20-356).
T1 construct: Bought protein; also called hIL-18Rβ; recombinant human IL-18Rb; not shown: Fc tag of the bought fusion protein, not described
T1 sequence: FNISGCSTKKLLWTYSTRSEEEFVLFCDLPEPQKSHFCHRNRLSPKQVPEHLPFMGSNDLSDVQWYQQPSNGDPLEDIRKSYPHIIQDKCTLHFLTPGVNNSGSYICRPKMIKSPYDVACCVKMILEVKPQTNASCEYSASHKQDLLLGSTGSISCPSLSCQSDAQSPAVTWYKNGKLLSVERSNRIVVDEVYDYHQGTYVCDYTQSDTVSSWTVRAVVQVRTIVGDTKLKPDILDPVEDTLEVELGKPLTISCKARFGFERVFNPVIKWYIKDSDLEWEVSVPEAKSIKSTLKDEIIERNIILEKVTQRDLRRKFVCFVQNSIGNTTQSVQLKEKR
Nature of the experiment: biolayer interferometry (BLI) after legend paragraph 36; drawn table, head kd (10^-4 s^-1), Human receptor. In general terms: BLI is a label-free optical method that tracks binding on a fibre tip over time.

Experiment [2] has as its target T1, human IL-18Rβ ECD Fc fusion …. Nature of the experiment: SPR (Table 5 title), Fab on human receptor.
For experiment [3] the target is unchanged. Nature of the experiment: biolayer interferometry (BLI) after legend paragraph 36; drawn table, head ka (10^4 M^-1 s^-1), Human receptor.
Experiment [4] shares this target. Nature of the experiment: competitive ELISA: signal on immobilised receptor after incubation with a two-fold dilution series of soluble hIL-18Rβ; the concentration axis is the soluble receptor; y axis printed 'Inhibition (%)'. (In general: In an ELISA, binding on a coated surface is turned into a signal by an enzyme label.)
The target in experiment [5] is T2, mouse IL-18Rβ (mouse, UniProt Q9Z2B1 20-356, limits assumed).
T2 construct: also called Mouse receptor; mouse ortholog
T2 sequence (looked up): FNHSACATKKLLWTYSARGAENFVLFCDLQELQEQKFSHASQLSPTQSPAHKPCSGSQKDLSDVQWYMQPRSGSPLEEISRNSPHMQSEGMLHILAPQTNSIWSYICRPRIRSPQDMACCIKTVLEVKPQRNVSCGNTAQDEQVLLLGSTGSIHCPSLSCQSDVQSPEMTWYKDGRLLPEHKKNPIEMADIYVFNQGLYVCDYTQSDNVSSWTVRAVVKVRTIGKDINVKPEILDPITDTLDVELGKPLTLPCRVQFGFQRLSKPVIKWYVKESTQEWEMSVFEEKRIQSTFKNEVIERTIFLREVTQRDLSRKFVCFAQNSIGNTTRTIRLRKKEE
Nature of the experiment: SPR (Table 5 title), Fab on mouse receptor.

The target of experiment [6] is T1, human IL-18Rβ ECD Fc fusion …. Nature of the experiment: direct binding ELISA on immobilised human IL-18Rβ, OD 450 against concentration; panel title and axes say IgG, the key and legend paragraph 36 say Fab.
Experiment [7] shares this target. Nature of the experiment: multipoint direct binding ELISA (drawn table, column EC50 (nM)).
Experiment [8] has the same target. Nature of the experiment: biolayer interferometry (BLI) after legend paragraph 36; drawn table, head KD (nM), Human receptor.
Experiment [9] shares this target. Nature of the experiment: competitive binding ELISA with soluble receptor (drawn table, column IC50 (nM)).
For experiment [10] the target is unchanged. Nature of the experiment: ELISA on recombinant human IL-18Rβ, normalised OD 450 nm, Fab with PBS or with saturating IgG 3131 [bottom plot]. An excerpt: The results are presented in FIG. 9, in which the binding signals for purified. […] Error bars represent standard deviation of replicate measurements.

As usually defined, the koff is a measure of how fast the partners let go of each other. By Kd is commonly meant a measure of binding affinity in units of concentration. In general, kon refers to the rate constant with which the complex forms. A word on the EC50 (read off the curve): it is the concentration needed to bring the measured effect to its halfway point. The term EC50 denotes the concentration at which the effect is half-maximal. By IC50 is commonly meant the concentration that gives 50% inhibition.

B1: Fab 3131 (Fab)
heavy: EVQLVESGGGLVQPGGSLRLSCAASGFNLYYSSMHWVRQAPGKGLEWVASIYSSYGYTYYADSVKGRFTISADTSKNTAYLQMNSLRAEDTAVYYCARSSFSHGYGWYGLDYWGQGTLVTVSSASTKGPSVFPLAPSSKSTSGGTAALGCLVKDYFPEPVTVSWNSGALTSGVHTFPAVLQSSGLYSLSSVVTVPSSSLGTQTYICNVNHKPSNTKVDKKVEPKSCDKTHT
light: DIQMTQSPSSLSASVGDRVTITCRASQSVSSAVAWYQQKPGKAPKLLIYSASSLYSGVPSRFSGSRSGTDFTLTISSLQPEDFATYYCQQYGYHYAGLITFGQGTKVEIKRTVAAPSVFIFPPSDSQLKSGTASVVCLLNNFYPREAKVQWKVDNALQSGNSQESVTEQDSKDSTYSLSSTLTLSKADYEKHKVYACEVTHQGLSSPVTKSFNRGECGGSDYKDDDDK
notes: also called F3131
Turning to B1, the values for the koff in experiment [1], in [2] and in [5] were 0.0013 s⁻¹, 0.00127 s⁻¹ and 0.00062 s⁻¹, respectively. The dissociation constant (Kd) came to 6.2 nM in experiment [2], 5.2 nM in experiment [5] and 6.1 nM in experiment [8]. Besides, the kon in experiment [2] was found to be 210000 M⁻¹ s⁻¹; in experiment [3] it was 210000 M⁻¹ s⁻¹; in [5] it was 120000 M⁻¹ s⁻¹. For the same molecule, the “IC50 (read off the curve)” value in [4] was in the range of 1 to 2 nM. For the same molecule, the “EC50 (read off the curve)” value in experiment [6] is about 0.3 nM. Moreover, the EC50 in experiment [7] amounted to 16 nM. This molecule showed an IC50 in [9] of 82 nM.

B2: Fab 3132 (Fab)
heavy: EVQLVESGGGLVQPGGSLRLSCAASGFNISYYYIHWVRQAPGKGLEWVASIYSYSGYTSYADSVKGRFTISADTSKNTAYLQMNSLRAEDTAVYYCARASAMDYWGQGTLVTVSSASTKGPSVFPLAPSSKSTSGGTAALGCLVKDYFPEPVTVSWNSGALTSGVHTFPAVLQSSGLYSLSSVVTVPSSSLGTQTYICNVNHKPSNTKVDKKVEPKSCDKTHT
light: DIQMTQSPSSLSASVGDRVTITCRASQSVSSAVAWYQQKPGKAPKLLIYSASSLYSGVPSRFSGSRSGTDFTLTISSLQPEDFATYYCQQHWWASVPPFTFGQGTKVEIKRTVAAPSVFIFPPSDSQLKSGTASVVCLLNNFYPREAKVQWKVDNALQSGNSQESVTEQDSKDSTYSLSSTLTLSKADYEKHKVYACEVTHQGLSSPVTKSFNRGECGGSDYKDDDDK
notes: also called F3132
B2 displayed a dissociation rate constant (koff) in experiment [1] of 0.0013 s⁻¹. In addition, the kon in experiment [3] amounted to 10000 M⁻¹ s⁻¹. Besides, in experiment [4], the “IC50 (read off the curve)” value was about 9 nM. In addition, in experiment [6], the “EC50 (read off the curve)” value was about 0.5 nM. In [7], this molecule yielded an EC50 of 33 nM. The molecule also returned a Kd in [8] of 133 nM. The same molecule gave an IC50 in experiment [9] of 74 nM.

B3: Fab A3 (Fab)
heavy: EVQLVESGGGLVQPGGSLRLSCAASGFNLYSSYIHWVRQAPGKGLEWVASIYSSSGYTYYADSVKGRFTISADTSKNTAYLQMNSLRAEDTAVYYCARSVHSYYSSAAYYAMDYWGQGTLVTVSSASTKGPSVFPLAPSSKSTSGGTAALGCLVKDYFPEPVTVSWNSGALTSGVHTFPAVLQSSGLYSLSSVVTVPSSSLGTQTYICNVNHKPSNTKVDKKVEPKSCDKTHT
light: DIQMTQSPSSLSASVGDRVTITCRASQSVSSAVAWYQQKPGKAPKLLIYSASSLYSGVPSRFSGSRSGTDFTLTISSLQPEDFATYYCQQSYFLITFGQGTKVEIKRTVAAPSVFIFPPSDSQLKSGTASVVCLLNNFYPREAKVQWKVDNALQSGNSQESVTEQDSKDSTYSLSSTLTLSKADYEKHKVYACEVTHQGLSSPVTKSFNRGECGGSDYKDDDDK
notes: also called FA3
Turning to B3, the koff in [1] is 0.0015 s⁻¹; in [2] it was 0.0016 s⁻¹. The Kd in [2] amounted to 78 nM; in [8] it was 30 nM. Also, the kon in experiment [2] stood at 20000 M⁻¹ s⁻¹; in experiment [3], 51000 M⁻¹ s⁻¹. The same molecule registered an EC50 in experiment [7] of 86 nM. In experiment [9], the IC50 came to 105 nM.

B4: 3131 AM2-35 (Fab, V domains shown)
VH: EVQLVESGGGLVQPGGSLRLSCAASGFNLYYSSMHWVRQAPGKGLEWVASIYSSYGYTYYADSVKGRFTISADTSKNTAYLQMNSLRAEDTAVYYCARSSFSHGYGWYGLDYWGQGTLVTVSS
VL: DIQMTQSPSSLSASVGDRVTITCRASQSVSSAVAWYQQKPGKAPKLLIYSASSLYSGVPSRFSGSRSGTDFTLTISSLQPEDFATYYCQQYGYHSAGLITFGQGTKVEIK
notes: Fab
Take B4: the binding result in experiment [10] is recorded as “binds”.

B5: 3131 AM2-S-Y (Fab, V domains shown)
VH: EVQLVESGGGLVQPGGSLRLSCAASGFNLYYSSMHWVRQAPGKGLEWVASIYSSYGYTYYADSVKGRFTISADTSKNTAYLQMNSLRAEDTAVYYCARSSFSHGYGWYGLDYWGQGTLVTVSS
VL: DIQMTQSPSSLSASVGDRVTITCRASQSVSSAVAWYQQKPGKAPKLLIYYASSLYSGVPSRFSGSRSGTDFTLTISSLQPEDFATYYCQQYGYHYAGLITFGQGTKVEIK
notes: Fab
In the case of B5, the binding result in [10] was “binds”.

B6: 3131 AM2-S-G (Fab, V domains shown)
VH: EVQLVESGGGLVQPGGSLRLSCAASGFNLYYSSMHWVRQAPGKGLEWVASIYSSYGYTYYADSVKGRFTISADTSKNTAYLQMNSLRAEDTAVYYCARSSFSHGYGWYGLDYWGQGTLVTVSS
VL: DIQMTQSPSSLSASVGDRVTITCRASQSVSSAVAWYQQKPGKAPKLLIYGASSLYSGVPSRFSGSRSGTDFTLTISSLQPEDFATYYCQQYGYHYAGLITFGQGTKVEIK
notes: Fab
For the molecule B6, in experiment [10], the binding result is “binds”.

B7: 3131 AM2-S-H (Fab, V domains shown)
VH: EVQLVESGGGLVQPGGSLRLSCAASGFNLYYSSMHWVRQAPGKGLEWVASIYSSYGYTYYADSVKGRFTISADTSKNTAYLQMNSLRAEDTAVYYCARSSFSHGYGWYGLDYWGQGTLVTVSS
VL: DIQMTQSPSSLSASVGDRVTITCRASQSVSSAVAWYQQKPGKAPKLLIYHASSLYSGVPSRFSGSRSGTDFTLTISSLQPEDFATYYCQQYGYHYAGLITFGQGTKVEIK
notes: Fab
Turning to B7, in [10], the binding result was “binds”.

B8: 3131 AM2-37 (Fab, V domains shown)
VH: EVQLVESGGGLVQPGGSLRLSCAASGFNLYYSSMHWVRQAPGKGLEWVASIYSSSGSTSYADSVKGRFTISADTSKNTAYLQMNSLRAEDTAVYYCARSSFSHGYGWYGLDYWGQGTLVTVSS
VL: DIQMTQSPSSLSASVGDRVTITCRASQSVSSAVAWYQQKPGKAPKLLIYSASSLYSGVPSRFSGSRSGTDFTLTISSLQPEDFATYYCQQYGYHSAGLITFGQGTKVEIK
notes: Fab
Take B8: the binding result in [10] was “binds”.

B9: 3131 AM2-S-T (Fab, V domains shown)
VH: EVQLVESGGGLVQPGGSLRLSCAASGFNLYYSSMHWVRQAPGKGLEWVASIYSSYGYTYYADSVKGRFTISADTSKNTAYLQMNSLRAEDTAVYYCARSSFSHGYGWYGLDYWGQGTLVTVSS
VL: DIQMTQSPSSLSASVGDRVTITCRASQSVSSAVAWYQQKPGKAPKLLIYTASSLYSGVPSRFSGSRSGTDFTLTISSLQPEDFATYYCQQYGYHYAGLITFGQGTKVEIK
notes: Fab
With B9, in experiment [10], the binding result is “binds”.
